± gives the uncertainty stated by the source.
Experiment: protein stability index of a GFP-peptide fusion (yeast GPS) (PSI 1-4); higher = more stable; sorted into four equal gates, so the index is relative within each strain
Procedure, shortened: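 The protein stability index of a peptide was calculated by multiplying its read frequency in each gate by that gate's number and adding the products. The peptides were tiled 17-residue stretches of yeast proteins, fused downstream of GFP on a Cherry-expressing plasmid and carried in yeast as a pooled library. Mid-log cultures in leucine-free medium were sorted into four equal gates by GFP/Cherry ratio, and each gate's plasmids were PCR-amplified and Illumina-sequenced.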

| Sequence | protein stability index (doa10∆) | protein stability index (pdr5∆) | protein stability index (san1∆) | protein stability index (ubr1∆) |
| --- | --- | --- | --- | --- |
| TKPNVLNDPSLKIQFIL [SIN4] | 2.03 ± 0.043 | 2.36 ± 0.055 | 2.57 ± 0.049 | 2.538 ± 0.025 |
| TKRESLNARMFLKYYGA [SIR2] | 2.98 ± 0.11 | 2.9 ± 0.098 | 3.14 ± 0.11 | 2.6 ± 0.1 |
| TKSNRRVSHSDTNSSKP [SIR4] | 2.97 ± 0.077 | 3.19 ± 0.085 | 2.99 ± 0.077 | 3.25 ± 0.053 |
| TKTNVDNNSKAEASFTF [YLR335W/NUP2] | 3.05 ± 0.063 | 3.24 ± 0.067 | 3.07 ± 0.045 | 3.13 ± 0.046 |
| TKTPGPGGQAALRALAR [RPS14A] | 2.64 ± 0.042 | 2.27 ± 0.031 | 2.39 ± 0.042 | 2.3 ± 0.029 |
| TKTRKHRGHVSAGKGRI [RPL28] | 1.91 ± 0.06 | 2.21 ± 0.062 | 2.09 ± 0.12 | 2.4 ± 0.062 |
| TKTTGKCGSVTVRLIPA [RPS2] | 1.34 ± 0.11 | 1.7 ± 0.082 | 1.35 ± 0.17 | 1.71 ± 0.11 |
| TKVLQFAAKQRQELQMQ [SNF2] | 2.3 ± 0.12 | 2.71 ± 0.076 | 2.51 ± 0.059 | 2.31 ± 0.083 |
| TKYSAKYAQDGAGIERE [RPL3] | 3.04 ± 0.15 | 3.48 ± 0.22 | 3.24 ± 0.27 | 3.19 ± 0.15 |
| TLAERQQLAYDLSISAL [RPN9] | 2.39 ± 0.078 | 2.47 ± 0.13 | 2.77 ± 0.24 | 2.95 ± 0.093 |
| TLAITTVTNSKFRSSIL [RPN2] | 2.19 ± 0.046 | 2.3 ± 0.047 | 2.17 ± 0.054 | 2.52 ± 0.045 |
| TLAYDRGHRIRREFKQY [PRP8] | 2.82 ± 0.08 | 2.63 ± 0.058 | 2.35 ± 0.098 | 2.3 ± 0.052 |
| TLDYAERHGYIRGIVKQ [RPL2A] | 1.71 ± 0.06 | 1.71 ± 0.083 | 1.71 ± 0.079 | 1.8 ± 0.051 |
| TLEAKIGGLLSKVREEV [RPO31] | 3 ± 0.11 | 3.33 ± 0.11 | 3.6 ± 0.084 | 2.87 ± 0.084 |
| TLFSSIEPQVINYLALN [ECM29] | 2.31 ± 0.07 | 2.64 ± 0.096 | 2.29 ± 0.21 | 2.09 ± 0.082 |
| TLGKLSTSVGWKYEDVV [RPL16B] | 2.82 ± 0.062 | 2.42 ± 0.069 | 2.71 ± 0.11 | 2.81 ± 0.059 |
| TLHLVLRLRGGIIEPSL [RPL40A] | 2.99 ± 0.056 | 2.81 ± 0.049 | 2.58 ± 0.056 | 2.77 ± 0.044 |
| TLKKEWLKEYEDETLRR [YIL149C/MLP2] | 3.12 ± 0.21 | 3.2 ± 0.18 |  | 3.52 ± 0.12 |
| TLKLQDTRITPSKVSKI [PRE6] | 2.53 ± 0.05 | 2.85 ± 0.052 | 2.34 ± 0.1 | 2.01 ± 0.031 |
| TLKPTFSFTEPAQKDSS [YOR098C/NUP1] | 2.78 ± 0.059 | 3.05 ± 0.067 | 2.99 ± 0.065 | 2.53 ± 0.037 |
| TLLKKANRDDVKGRENE [RPC82] |  | 3.5 ± 0.23 |  | 3.15 ± 0.17 |
| TLLREVVFTRLVQRCWQ [CSN12] | 1.4 ± 0.061 | 1.24 ± 0.048 | 1.39 ± 0.12 | 1.54 ± 0.055 |
| TLLYEQIIQRDKINKYS [SNF5] | 3.1 ± 0.08 | 3.35 ± 0.089 | 3.19 ± 0.059 | 2.27 ± 0.072 |
| TLNPKTGHLFLKIIHTS [PRP8] | 2.44 ± 0.047 | 1.91 ± 0.048 | 1.77 ± 0.076 | 1.84 ± 0.048 |
| TLNSRALSGLYYKNFHN [SNM1] | 2.17 ± 0.052 | 2.38 ± 0.06 | 1.88 ± 0.063 | 2 ± 0.042 |
| TLPGDDELDQEILNLST [RPT5] | 3.32 ± 0.12 | 3.27 ± 0.12 | 3.58 ± 0.072 | 3.45 ± 0.098 |

| Sequence | protein stability index (doa10∆) | protein stability index (pdr5∆) | protein stability index (san1∆) | protein stability index (ubr1∆) |
| --- | --- | --- | --- | --- |
| TLPQPRLNKLNSNGIAM [SMD1] | 2.3 ± 0.11 | 2.27 ± 0.069 | 1.72 ± 0.094 | 2.15 ± 0.053 |
| TLQLYMVHREFLKLANG [RGR1] | 1.49 ± 0.047 | 1.63 ± 0.05 | 2.07 ± 0.058 | 2.28 ± 0.049 |
| TLQTISFLGYLRYVKQI [ISW2] | 2.24 ± 0.044 | 1.71 ± 0.049 | 1.5 ± 0.094 | 1.96 ± 0.048 |
| TLRPRQYATVSKTHKTV [RPL34A] | 2 ± 0.16 | 2.12 ± 0.093 |  |  |
| TLSYDDISAAIVHSSDG [DLS1] | 2.65 ± 0.046 | 2.82 ± 0.053 | 2.72 ± 0.04 | 2.66 ± 0.046 |
| TMETKTLPEKKQFDSIF [SIR4] | 2.44 ± 0.047 | 2.69 ± 0.057 | 2.84 ± 0.047 | 2.65 ± 0.043 |
| TMGEETAKKDMSSTTPK [SNF12] | 2.58 ± 0.07 | 3.03 ± 0.076 | 3.31 ± 0.1 | 3.27 ± 0.079 |
| TMHTKTYAAEIAHNISA [RPL32] | 2.34 ± 0.042 | 2.42 ± 0.04 | 2.21 ± 0.051 | 2.33 ± 0.036 |
| TMLENITLRGVENIERV [RPO21] | 3.23 ± 0.12 | 2.86 ± 0.1 | 2.82 ± 0.12 | 2.69 ± 0.058 |
| TMVIQDEDWSVRIDKAL [ECM29] | 2.84 ± 0.19 | 3.21 ± 0.18 |  |  |
| TNEEVRNMAEEFEYDDE [CYT1] | 2.92 ± 0.14 | 2.3 ± 0.077 | 2.49 ± 0.098 | 2.2 ± 0.041 |
| TNKISPKDFSPNFTGID [SSN2] | 2.76 ± 0.13 | 1.84 ± 0.11 | 2.9 ± 0.12 | 2.91 ± 0.057 |
| TNNKKLLEKANNQQRLL [SMC3] | 2.01 ± 0.11 | 1.94 ± 0.091 | 2.58 ± 0.18 | 1.49 ± 0.063 |
| TNVSKQNDFLFSVGESL [ECM29] | 2.56 ± 0.055 | 2.92 ± 0.071 | 2.94 ± 0.1 | 2.46 ± 0.053 |
| TPAAATSPIDIREKVAK [SNF2] | 2.75 ± 0.11 | 2.84 ± 0.11 | 2.63 ± 0.11 | 3.01 ± 0.1 |
| TPAFGSNNTGNTAFGNS [YJL041W/NSP1] | 2.85 ± 0.11 | 3.13 ± 0.081 | 3.28 ± 0.067 | 3.08 ± 0.049 |
| TPANTNNSTSNANTVFS [SWI1] | 2.5 ± 0.057 | 2.75 ± 0.047 | 2.66 ± 0.04 | 2.931 ± 0.028 |
| TPEMNVTNNVEEGEFII [TAF14] |  | 2.43 ± 0.26 |  | 3.62 ± 0.22 |
| TPISNEQTEGEPKKKRG [SRP68] | 3.16 ± 0.12 | 3.27 ± 0.17 | 3.27 ± 0.11 | 3.27 ± 0.068 |
| TPKVVRSQDQENPAFLP [SEC65] | 2.66 ± 0.074 | 2.57 ± 0.067 | 2.16 ± 0.063 | 2.65 ± 0.055 |
| TPNMVNSEISNLPKDKS [SSN2] | 2.74 ± 0.08 | 3.08 ± 0.17 | 2.69 ± 0.087 | 2.9 ± 0.066 |
| TPRDRRKSVFAPLNFNP [SSN2] | 2.68 ± 0.066 | 2.57 ± 0.063 | 2.95 ± 0.081 | 2.86 ± 0.045 |
| TPSSNSNSSELEPDYQA [MED1] | 2.74 ± 0.13 | 2.96 ± 0.16 | 3.35 ± 0.055 | 3.43 ± 0.1 |
| TPTDVIGVVSLTNGVTE [RRP6] | 3.21 ± 0.14 | 2.87 ± 0.07 | 3.03 ± 0.098 | 3.15 ± 0.059 |
| TPVQPDLSVTPQKSSSK [YAR002W/NUP60] | 3.15 ± 0.04 | 3.15 ± 0.04 | 3.057 ± 0.026 | 3.093 ± 0.027 |

From the supplement of paper PMC9732359
